B1: ZNF263 (parent)
chain: FAHSSNLLRHQRIHTGERPYKCPE

Variants of: B1
Test: protein stability index of a GFP-peptide fusion (GPS, HEK-293T) (PSI 1-6); higher = more stable
Details: c terminus: a fixed tail appended
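Also: lentivirally expressed fusions sorted by FACS into six bins by GFP to DsRed ratio, PSI derived from sequencing read proportions per bin multiplied by bin number.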

Protein stability index: each site, then its substitutions
T15: G 2.19
P23: N 2.56; A 2.54; E 2.67; Y 2.5; C 1.64; L 2.12; M 2.2; W 2.2; Q 3; R 1.95; H 2.36; V 1.87; K 2.52; D 2.47; I 2.58; S 2.41; G 2.82; F 2.11; T 2.29
E17: C 1.65; S 2.29; H 2.47; N 1.8; W 2.16; L 2.04; Y 1.47; Q 2.86; D 1.91; G 1.81; K 1.44; I 2.29; R 1.95; A 2.31; M 1.98; T 2.19; F 1.95; P 2.63; V 2.44
R12: Q 3.09; H 3.01; T 2.48; L 2.44; K 2.56; I 2.33; M 2.52; V 2.73; F 2.17; N 2.84; G 2.72; D 3.3; W 1.87; P 2.38; Y 2.1; E 2.95; S 2.8; C 2.54; A 2.91
Q11: F 1.48; N 3.13; G 2.18; H 2.5; T 2.28; R 2.2; K 2.03; V 2.14; S 1.98; M 1.84; I 1.31; P 1.79; Y 2.49; L 1.69
P19: H 2.89; T 3.02; G 2.59; I 2.38; L 2.65; A 2.54; Y 2.58; N 2.75; R 2.9; M 3.05; Q 3.17; S 2.69; W 1.83; C 2.48; K 3.02; F 2.74; E 3.67; V 2.67; D 3.71
I13: S 2.68; W 1.99; T 2.82; E 3.23; M 2.12; A 2.85; G 2.91; H 2.77; Q 2.83; V 2.13; P 3.22; L 2.07; N 2.99; R 2.39; C 2.46; K 2.68; Y 2.43; F 2.14; D 3.09
H14: L 2.57; S 2.46; V 2.34; P 3.05; I 2.57; G 2.59; R 2.18; W 3.6; K 2.08; Y 1.9; N 2.71; T 1.91; M 3; C 3.21; E 2.73; D 2.81; Q 2.98; F 2.16; A 2.99
Y20: Q 3.48; I 2.63; H 3.23; E 3.68; P 3.02; F 2.77; S 3.31; N 3.29; R 2.91; W 2.75; L 2.81; M 2.72; D 3.46; C 2.37; A 3.51; G 3.32; K 3.43; V 3.48; T 3.38
K21: F 2.56; R 1.97; W 2.64; C 2.56; A 2.41; I 2.6; T 2.83; H 2.49; L 2.4; D 2.62; E 2.79; G 2.21; S 2.29; M 2.07; P 2.51; V 2.65; Q 2.3; N 3.13; Y 2.81

Reference: the supplement of paper PMC10567573
